This passage reports radio-isotope signal results from patent US20210214418A1.

The test has as its target chemokine receptor CXCR5 (overexpressed on CXCR5-CAR T cells) (UniProt P32302). As to the kind of experiment: cell-based or functional assay.
Sequence of UniProt P32302 (P32302 whole entry): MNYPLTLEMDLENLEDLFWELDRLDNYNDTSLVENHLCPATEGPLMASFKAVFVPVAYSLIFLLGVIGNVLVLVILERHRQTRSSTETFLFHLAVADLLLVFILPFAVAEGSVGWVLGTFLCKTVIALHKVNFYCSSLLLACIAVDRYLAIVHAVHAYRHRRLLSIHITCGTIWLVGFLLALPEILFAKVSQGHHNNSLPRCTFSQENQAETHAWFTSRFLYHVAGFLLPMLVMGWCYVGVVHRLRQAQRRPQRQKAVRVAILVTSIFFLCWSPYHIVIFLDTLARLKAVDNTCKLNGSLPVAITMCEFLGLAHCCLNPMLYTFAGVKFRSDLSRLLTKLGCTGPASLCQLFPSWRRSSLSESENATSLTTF

On to “CXCL13 stably transfected in A549 cells (A549-CXCL13) (from UniProt O43927 23-109) (ligand)”, for which the radio-isotope signal at the CXCL13 positive tumor site, EGFR-CXCR5-CAR compared with EGFR-CAR, 72 h turned out to be 3 fold and the radio-isotope signal at the CXCL13 positive tumor site, EGFR-CXCR5-CAR compared with EGFR-CAR, 168 h came to 7 fold.
